Results: a protein production outcome set (Wang et al. 2014)

Experiment: label from the status in PepcDB records

## MVKDRQIQKTKVAIYNAFISLLQENDYSKITVQDVIGLANVGRSTFYSHYESKEVLLKELCEDLFHHLFKQGRDVTFEEYLVHILKHFEQNQDSIATLLLSDDPYFLLRFRSELEHDVYPRLREEYITKVDIPEDFLKQFLLSSFIETLKWWLHQRQKMTVEDLLKYYLTMVER
  protein production: not failed

## MVKDTLFSTPIAKLGDFIFDENVAEVFPDMIQRSVPGYSNIITAIGMLAERFVTADSNVYDLGCSRGAATLSARRNINQPNVKIIGIDNSQPMVERCRQHIAAYHSEIPVEILCNDIRHVEIKNASMVILNFTLQFLPPEDRIALLTKIYEGLNPNGVLVLSEKFRFEDTKINHLLIDLHHQFKRANGYSELEVSQKRTALENVMRTDSIETHKVRLKNVGFSQVELWFQCFNFGSMIAVK
  protein production: not failed

## MVKFIHCSDLHLDSPFKSKSHISPKIFEDVQKSAYESFKNIVDIALQQDVDFVIIAGDLFDSENRTLRAEIFLKQQFERLQNEQIFVYVCHGNHDPLSSKISSNWPDNVSVFSNKVETYEAITKSGETIYIHGFSYENRASYENKIDEYPSSQGQKGIHIGVLHGTYSKSSVNERYTEFILEDLNSKLYHYWALGHIHERQQLSDMPVINYSGNIQGRHFNEQGEKGCLLIEGDHLKLKTKFYPTQYIRFEEATIETDKTSKQGLYEVIQNFKEQVREEGKAFYRLTLVINSETLISPQDLLQVEEMITDYEENENQFVYIDELKIQYAQNDESPLVNEFSAELLVDQTVFDKAMSDLYLNPRASKFLDDYGTFDHTALVNRAEEILKAEMRGEQNDN
  protein production: failed

## MVKHIWDSERAAQLPKGVEELVYRSNLIGSDRTVCNWGGGNTSMKTTEKDFRGREIEVMWVKGSGSDLATMKAHNFSGLKLDDIRPLIKRDQMPDEEMVDYLSHCMIDSKHPRPSIETLLHAFLPYKHVDHTHPDAIISICCADNGKQIAEDIYGNRFVWVPYVRPGFTLSKMIAEGVANNPHAELVLMEKHGLVTWGETSETCYQKTISIIQEAEQYINDRINQHEVFGGKRYQPLPEDKR
  protein production: not failed

## MVKKLFILISYGVIAALIYLYGEWLLEWIQQGGARFIFLTVIIATLLALFPIIPYPIIGGVLGAAYGPFLGSAVTWIGSSLASIIMFMFVRYGYQDWGLSLIRRSDLVTKVTAMFEKNAFMAIFITRLIPIIPSIIVNIYSALSRVSFINYSIASSLGKVPSMILFAVVGNSIATNPSQLLWIALFYSSFLLIVWIGYRAWQRVALQKQANI
  protein production: failed

## MVKLDRYIGVTVFVAILAVLGVILGLALLFAFIDELNDISASYGIGDALRFIFLTAPRRAYDMLPMAALIGCLVGLGTLASNSELTIMRAAGVSLSRIVWAVMKPMLVLMLAGILVGEYVAPWTENIAQSGRALAQGGGDSQSSKRGLWHRQGREYIHINAVQPNGVLYGVTRYRFDEQRGLESASFAKRARFETDHWQLEEVTTTLLHPREKRSEVVKLPTERWDAQLSPQLLNTVVMEPEALSISGLWQYIHYLADQGLNNNRYWLAFWTKVLQPLVTAALVLMAISFIFGPLRSVTLGQRIFTGVLVGFVFRIAQDLLGPSSLVFDFPPLLAVVIPASICALAGVWLLRRAG
  protein production: failed

## MVKTMAKKKAVKVLRKQKKRETLRRFTQKQNIGRACLTAQEFRLLQRMSHSSKALRNVGLYTMKQSYLNHNKMATVKEVDIAMQADMNYWGIQSNSLQAIRRALFTEVKSFFKALEKWKKNPEKFTGRPKFPNYSHSTDKRIIEIYQVPKVDENGFWMIPMSVAFRKKFGSIKIRMPKNLRNKNISYIEIVPKQKGRFFEVHYTYEMHVSQMKKQPMTTSNALGCDLGVDRLVSCVTNTGDAFLIDGKKLKSINQYFNKTIRNLQQKNVENGLSKRIVTNKIAALWHKRERQIHGYIAQTVGLLFKKVKEFDIDTIVVGYNAGWKQNSHMGKKNNQKFVQIPFHKLIAAIENKCIKEGIRFFKQEESYTSKASFLDKDPVPVWSKDDRTQYRFSGKRITRGLYQSKAGTCIHADINGALNTLQKSQVVELDGNLKVKTPILLEVQKRKAVASRIALEHHHHHH
  protein production: failed

## MVKYAKTPKSFINIKDLGFALLETDELDGTIKYSNVTQTRGLQEISVETGGEIVNAYADGSIIESGTTDGEGKISMTMHAFPQEIRELIFNEIYNEAGVYSEERGKQNNYVAVWFKRERRDGSYQQVGLTKVMFADPNLEGKTAEEDWEFSSEESEGTAMHRIADGKRKILFDSSREGANVDSFFQELLNGAYDSKTEVDTGDSTTGESAAEALEHHHHHH
  protein production: failed

## MVLEYVYCLLAFCLYFMAYCINPDCSQRENPDTSAVCQNCGTPLILQNRYRLRHFLRTDRGSYTEVFAIEDLVNRDQPKVLKSLKEVTPQLERLFQQEASILNTLRHPGLPIGEALFPLVLNTGRQLWCFVMEKIPGEDLQTWLSHHQYVTSYKTALDWLKQLTQILQFVHEEKFFHRDIKPANIMVCPDGKLVLIDFGAARKVTQTIINRESVTIVHSLGYTAPEQRDGHAVVQSDFYALGRTLIYLLTGIDPTGDRAQDLLNWSKYIQDPKTPKKFISLLQVMTDSHPYHRPPTAQAILEKIEKIDQHSHQWPKLLLSATCGVLLLFAGKSLYQEITLPRTCDNILNDYLSCGEESLTPSSFWGNSQPPPAKQLGMEQYRNRNFGAAVNFLETAFQQESDPETLIYLNNAKIHQQFPANQIYTIAVAVPLERRTDIGREILRGVAQAQTEALKKGRALRIIIADDSNREDSKTGNNARKIAQHLVKYRDLLAVLGHYSSEATKNSLPIYSQARVVLISATSTSQNLKDPFFFRTVPSDRIAAQKMVTYLLSALKQNQVAIFYSRGSEYAESLSQAVRESTKSLPLKVIDHQAAFNLASDRFNAITALNQAQTQGAKAIVLIPDAGVGLYNAIPNALRVIQSNINQVWIVAGDSLYSSDSFTSEKAFSSPEIKYTAWAVFWHPLNEINSTFVKEVQNLWKIDILSILSNTNITWRTATSYDATLVLSQAITQNPTRLGIKKTLSQPQFSVTGATGVIQFAGSDRQNGKITMVRVQRNCDDNGFFFIPSDRSLQCQ
  protein production: failed

## MVLIALLIALSVERLYHSPAFLHWSFFLERWQHWSAARLTNEKWKSEPLQLVRLLVPALAVGFLVVLLDNLMVTFIVSILSLLLAMNCEPARKSYKAYLKAANRGDEQQVNEHQHALTEFAGQHQPKQLSDSLIWINYRQYIAVMFYFVLFGSFGALVYASLRYAEKQISEPESTKLWQQFMWFADWVPARLAGFGLLIVGHFSRAFPVWVKHSLNPQADPDKLLFNVASKAEDIPQHPDDRTEHIACQLRLMRRQQIFWVCVIAALTLTGWVN
  protein production: failed

## MVLKRKGLLIILDGLGDRPIKELNGLTPLEYANTPNMDKLAEIGILGQQDPIKPGQPAGSDTAHLSIFGYDPYETYRGRGFFEALGVGLDLSKDDLAFRVNFATLENGIITDRRAGRISTEEAHELARAIQEEVDIGVDFIFKGATGHRAVLVLKGMSRGYKVGDNDPHEAGKPPLKFSYEDEDSKKVAEILEEFVKKAQEVLEKHPINERRRKEGKPIANYLLIRGAGTYPNIPMKFTEQWKVKAAGVIAVALVKGVARAVGFDVYTPEGATGEYNTNEMAKAKKAVELLKDYDFVFLHFKPTDAAGHDNKPKLKAELIERADRMIGYILDHVDLEEVVIAITGDHSTPCEVMNHSGDPVPLLIAGGGVRTDDTKRFGEREAMKGGLGRIRGHDIVPIMMDLMNRSEKFGA
  protein production: not failed

## MVLLEKLWDDVVAGPQPDRGLGRLRKITTQPINIRDIGEGSSSKVVMHRSLTMPAAVSPGTPTTPTTPTTPRKDNVWRSVFNPGSNLATRAIGSNIFDKPTHPNSPSVYDWLYSGDSRSQHR
  protein production: failed

## MVLLIVDGIIVAISAIAFSPDTVMYSILSLYVVSLTIDKMMVGLNSSRNLLIISQKSDQILNYITNGADRGATKIPVLGGHTGHSQNMIMTTLSTHEVPKVQEEIQKIDETAFIVIIPASTVMGRGFSLQKDYKSVPNDFINPL
  protein production: failed

## MVMEYELRTPLVKDQILKLKVGDVVYITGEIFTARDEAHARALEWMEEGKELPFSFDKGVVYHCGPLVKKNDEWRVVSAGPTTSARMNPFTPKILEKVECMGIIGKGGMSEEVVEAMRGKAAYFAFTGGAGALAAMSIKKVKGVVWEDLGMPEAVWLLEVERFGPCIVAIDAHGNSLYRR
  protein production: not failed

## MVMMEQCAWPYIRSVRVRVGERTRAGGEFDLMGTTTRRNASAMKMVGALLALYRQAAGHTQRSLGERFVIGEQQIASIEQGRRPLKPDLAEQLDELLGTKGALSTALSKMPEVDLVPLWAEEFLDREREAIAISSYENQVLPGLLQTEAYAWAVFRSRVPFYDEDTIARLAAARIERQGILQGKEPPITCFVVWEPVVRAPIGGRTVWREQLQRLRACSELPGLMLQVLPQDRTSHAGLNGPFVLLETPEHQRLAYTENQRGSQLIADADEVAILTQKCAMLRSQALTPEDTRDLLDRLLGEQ
  protein production: failed

## MVMMSKQLTAQAPVDPIVLGKMGSSYGIRGWLRVFSSTEDAESIFDYQPWFIQKAGQWQQVQLESWKHHNQDMIIKLKGVDDRDAANLLTNCEIVVDSSQLPQLEEGDYYWKDLMGCQVVTTEGYDLGKVVDMMETGSNDVLVIKANLKDAFGIKERLVPFLDGQVIKKVDLTTRSIEVDWDPGFLEHHHHHH
  protein production: failed

## MVNFEEMTFENIMESMLDAVPATLDKREGSMIWNSLAPAASQIALLYTWLENAFELVFYDTAPDEFLDRAAAPYGVIRKPAVATQRIIKGIDENDNKIEIPEGSRFFVESENIYFKVTSSTILEQVVECEVAGTKGNADFSNDTILSLDNIYGLAKVEIGDILIPGSDEEELETFRKRFFTKIQKDAFSGNKNHYKLWAEEVLGVGKAKIYPLGYGEGTVKIVITDTNLHPASPTLVEQVRNYIDPLPQKGEGVAPIGAKVFIESAAWKTINISGQLVLKDGKSVNDVIEEITMDINKLFKSITFPEDELTSVKLAVISNIIFSAPSVLDNFNIKLNNEAANIILAENEVPQLGAFSFELILEHHHHHH
  protein production: failed

## MVNLGAMLFRGRGVKLSQQFAVIGLGRFGRGVCETLHGMGYEVLGSDNQERLVNQVLQDHIVDHAIQLDATDPQALKEAGIFEFETVIVAIGNHLDASIITTLNLKEAGVPKVIAKASSEVHKKLLERVGADRVVFPEYEAGCELARSLTRPAILDCLNLDPQKSIVEVKVPEAFHGRTVAEVELRSRYGLNLIALRFDDKFEINPSPSQKLHQGDIMVVIGDNNDIERFLRSQHVH
  protein production: failed

## MVNPTIPDDLLAKIAKTVAHKCWWDLQPLLRSGRRGRDVVYRPDVLKGANIFSMCEDPDDYQVDGSHHPSGPQEEGRHRAFFKRCVDAGNPTTMYFEALCVLTHERDIKGAINLLRPHVPSQAHATLACAILYIIDGNDYMGAIFLNLFGRNHYPLGTEETRDLCEEFLEDLKKFRPPYNNTYGSTFSYPNSHGIKTPDCALLCYIVSGPFKNVCNCCYLWWCARRVSQML
  protein production: failed

## MVNTRNIIRQFTPNWFTTIMGTGVVAIVLGHFSELHTLGAALWLINTCLFCVFCILYMLRWSLFPHEARQIFHHPSMSLFLGAIPMALATLINGLLMYGNTVFGQHLPQLALWLWYIDVVLVISIGWVVPYFMFSRQQHHLHSITAMWLLPIVAAEVAAATGGLLVAEFVHSTQAISILWLSYMLWGMSVLPAFAILSLLILRLALHKLPEKELAISSWLSIGPIGTGALAMMLLGQHAPDVLQSIGMQSFGIFLQQAAKLISLVLLGCGVWWLGIAMFASLHHLKHGIPFNLGWWGLTFPLGVFTLALSQLGQLLGWNAFDHIAVILSVILVGLWSCVAVKTIQGAYRGQLFFSPCLQQLQQQQKACAQSETA
  protein production: failed

## MVNVDHDRFTTLVHELNQAKYEFHYKCAELVSNHEAAQPKKVLDEKKMDLEKLYEKVKEVMKKMVAFAENPKKEG
  protein production: failed

## MVNYKEKLDEAIHLTQQKGFEQTRAEWLMLDVFQWTRTDFVVHMHDDMPKAMIMKFDLALQRMLLGEPIQYIVGFASFYGRTFDVNSNCLIPRPETEEVMLHFLQQLEDDATIVDIGTGSGVLAITLKCEKPDLNVIATDISLEAMNMARNNAEKHQSQIQFLTGDALKPLINEGIKLNGLISNPPYIDEKDMVTMSPTVTRFEPHQALFADNHGYAIYESIIEDLPHVMEKGSPVVFEIGYNQGEALKSIILNKFPDKKIDIIKDINGHDRIVSFKW
  protein production: failed
